Laboratory results from PMC11601596.

Legend:
[1] = target: Citrobacter sp. RHBSTW-00271 BubCD D104A peptidase domain mutant (Citrobacter sp. RHBSTW-00271); experiment: crystal structure
[2] = target: Citrobacter sp. RHBSTW-00271 BubCD (JAB/JAMM family peptidase-E1 fusion), wild type (Citrobacter sp. RHBSTW-00271); experiment: crystal structure

| Substance | stoichiometry N [1] | stoichiometry N [2] |
| --- | --- | --- |
| Citrobacter sp. RHBSTW-00271 BubCD D104A peptidase domain mutant (enzyme) | 2 | – |
| Citrobacter sp. RHBSTW-00271 BubCD (JAB/JAMM family peptidase-E1 fusion), wild type (enzyme) | – | 2 |
